The results in this text go back to the DeepSol protein solubility set.

A short description of the data set: soluble on expression in E. coli; label from the status in PepcDB or PDB records.
“MIVVKVGGAEGINYEAVAKDAASLWKEGVKLLLVHGGSAETNKVAEALGHPPRFLTHPGGQVSRLTDRKTLEIFEMVYCGLVNKRLVELLQKEGANAIGLSGLDGRLFVGRRKTAVKYVENGKVKVHRGDYTGTVEEVNKALLDLLLQAGYLPVLTPPALSYENEAINTDGDQIAALLATLYGAEALVYLSNVPGLLARYPDEASLVREIPVERIEDPEYLALAQGRMKRKVMGAVEAVKGGVKRVVFADGRVENPIRRALSGEGTVVR”: the “soluble on expression in E. coli” value is recorded as “soluble”.

On to “MHIKIDDLTGRQVVSLVNEHLHSMTLMSPPESIHALGLEKLRGPEITFWSAWEGDELAGCGALKELDTRHGEIKSMRTSASHLRKGVAKQVLQHIIEEAEKRGYERLSLETGSMASFEPARKLYESFGFQYCEPFADYGEDPNSVFMTKKLLEHHHHHH”, for which the “soluble on expression in E. coli” value is listed as “soluble”. Under “MSLTLDVWQHIRQEAKELAENEPMLASFFHSTILKHQNLGGALSYLLANKLANPIMPAISLREIIEEAYQSNPSIIDCAACDIQAVRHRDPAVELWSTPLLYLKGFHAIQSYRITHYLWNQNRKSLALYLQNQISVAFDVDIHPAAKIGHGIMFDHATGIVVGETSVIENDVSILQGVTLGGTGKESGDRHPKVREGVMIGAGAKILGNIEVGKYAKIGANSVVLNPVPEYATAAGVPARIVSQDKAAKPAFDMNQYFIGIDDGMNLNEGGSHHHHHH” stands “soluble”; under “MSSPSFPRVLIFDSGVGGLSVYREIEARLPQLNYIYLFDNAAYPYGELTQETLIARVDTLVTRMVEQERIDLVVIACNTASTIVLPVLRAKLTIPVVGVVPAIKPASLIASKAIGLIATPATVKRQYTQELIRDFSANKNVELLGSTRLVNMAEEKLRGKPLDLEELASILQPLKNTIDVAVLGCTHFPLIKEEIQQVLGEQVQLIDSGLAIARRVQELLGIEQAVGAKQKHRIYASAPPWEESALNIKLEQLGFNPVQPFLHPI”, “not soluble”. Take “MFFLQMSGFPGSGKSTVSKYIAKLTGAVIIDHDVLKSALLKSLKVKGIESTIVGGLAYDAEWVLIDSYLEQGHSVILDSPCLYEGMVEKGIELSNKHGVKYKYIECYLNDMEEINRRLQTRKRMISQIEKVESEVGFKKWLNGSKRPSNNEYLIVDSSKPIEQYVEKMMDYMTK”: the “soluble on expression in E. coli” value is “not soluble”. On to “MDILLVDGYNMIGAWPQLKDLKANSFEEARDVLIQKMAEYQSYTGNRVIVVFDAHLVKGLEKKQTNHRVEVIFTKENETADERIEKLAQALNNIATQIHVATSDYTEQWAIFGQGALRKSARELLREVETIERRIERRVRKITSEKPAGKIALSEEVLKTFEKWRRGDLDLEHHHHHH”, for which the “soluble on expression in E. coli” value is “not soluble”. Turning to “MGSDKIHHHHHHMTEIATIEKPAQHGATTRLIDIVFPGDTNHHGTLFGGTGLALMDRVAFIAATRFGRTPFVTASCERIDFRQPARIGHIVEFTARPVKAGRRSLTVEVEMVAETIIGRQQHTCTRGIFHMVAIPEGEDAASYVLPELLTEETPDPSDAVTMVEIVFPDQANSAGRMFGGEAIAYMTKAAFVAASRYCGKLVVLASSERIDFARAIEIGEIVEAQAHVERVGRSSMSIQTKLWSENLLTGERHITATGHFTMVAVDKDHRPATIRDPAEAFSLEKGGA”, the “soluble on expression in E. coli” value is “soluble”. As to “MAAAAAGAGSGPWAAQEKQFPPALLSFFIYNPRFGPREGQEENKILFYHPNEVEKNEKIRNVGLCEAIVQFTRTFSPSKPAKSLHTQKNRQFFNEPEENFWMVMVVRNPIIEKQSKDGKPVIEYQEEELLDKVYSSVLRQCYSMYKLFNGTFLKAMEDGGVKLLKERLEKFFHRYLQTLHLQSCDLLDIFGGISFFPLDKMTYLKIQSFINRMEESLNIVKYTAFLYNDQLIWSGLEQDDMRILYKYLTTSLFPRHIEPELAGRDSPIRAEMPGNLQHYGRFLTGPLNLNDPDAKCRFPKIFVNTDDTYEELHLIVYKAMSAAVCFMIDASVHPTLDFCRRLDSIVGPQLTVLASDICEQFNINKRMSGSEKEPQFKFIYFNHMNLAEKSTVHMRKTPSVSLTSVHPDLMKILGDINSDFTRVDEDEEIIVKAMSDYWVVGKKSDRRELYVILNQKNANLIEVNEEVKKLCATQFNNIFFLD”, the “soluble on expression in E. coli” value was “soluble”. In the case of “MERKLGISLYPEHSTKEKDMAYISAAARHGFSRIFTCLLSVNRPKEEIVAEFKEIINHAKDNNMEVILDVAPAVFDQLGISYSDLSFFAELGADGIRLDVGFDGLTEAKMTNNPYGLKIELNVSNDIAYLENILSHQANKSALIGCHNFYPQKFTGLPYDYFIRCSERFKKHGIRSAAFITSHVANIGPWDINDGLCTLEEHRNLPIEVQAKHLWATGLIDDVIIGNAYASEEELEKLGNLNRYMLQLKVHFVDEATEVEKRATLQELHVRRGDITEYMVRSTEVRKKYKDYDFPVRESVLQERGQVVIGNNSFGKYKGELQIILKEMPIDERKNIVGTIAEEELFLLDYVGAWTQFTCVE”, the “soluble on expression in E. coli” value is “soluble”.

Take “MDSDHNHINGDLAHGFENMVCVRCNDGFSMQDQMVNSSGQVWHSECFVCAQCFEPFPDGIYFEYEGRKYCEHDFHVLFSPCCGKCNEFIVGRVIKAMNASWHPGCFCCEICNKQLADVGFLRNAGRALCRECNEREKAAGHGRYVCHKCHAMIDDGQHIKFRGDSFHPYHFKCKRCNNELTTASREVNGELYCLRCHDTMGIPICGACHRPIEERVIAALGKHWHVEHFVCSVCEKPFLGHRHYERKGLPYCEQHFHKLFGNLCFKCGDPCCGEVFQALQKTWCVKCFSCSFCDKKLDQKTKFYEFDMKPTCKRCYDRFPTELKKRISESLKDRDVENQRRSMSPGPK”: the “soluble on expression in E. coli” value was “not soluble”. Regarding “MRYSLKQLAVFDAVADCGSVSQAADKLALTQSATSMSLAQLEKMLGRPLFERQGKQMALTHWGMWLRPKAKRLLQDAQQIEMGFYDQHLLSGEIRLGASQTPAEHLVPDLISIIDSDFPEIRISLGVKSTKGVIEGVLDYKYDLGIIEGRCDDNRIYQEVWCRDHLTIVASAHHPFAKRESVSLAQLEQAKWVLREQGAGTRNIFDSVIHPLIPDLDVWREYEHVPVLRTLVANGPYLTCLPYLDVERFIESGLLVALNVPELNMERTLSFIWRADMEENPLAECIKREGLRMMKGKPSIL”, the “soluble on expression in E. coli” value is reported as “not soluble”. Take “MQKTFEEYERFFTTEKDMIPATIFTAPKKKFLQADSKFYEKRRVWILVISQHLVDNNLRSEDVRRFFHLESPDDDENNVDLGPSERKTATANDFDYLTTIGKGSFGRVYQVRHKETKKIYAMKILSKEHIRKKNEVKHVMAERNVLINNFKHPFLVSLHFSFQNKEKLYFVLDHLNGGELFSHLQREKHFSESRSRFYAAEIACALGYLHEKNIIYRDLKPENLLLDDKGYLVLTDFGLCKEDMQGSKTTSTFCGTPEYLAPEIILKKPYDKTVDWWCLGSVLYEMIFGLPPFYSKDHNEMYDKIINQPLRLKHNISVPCSELITGLLQKDRSKRLGHRNDFRDIRDHPFFLPVDWDKLLNRELKAPFIPKVKNAMDTSNISKEFVEIQIDPSSLAPQQLAVTHRDHDFENFTFVDTNRVLV”: the “soluble on expression in E. coli” value is given as “not soluble”. Take “MGSDKIHHHHHHMEDIVEALKLAVTNLPEDVALALKNAYEREDYEIAKYNLEIMLRAVKTSKYYYVPLCQDTGTPIFFVETDGTWNVKEIYETIAEAVKRATDEIPLRPNAICLLSGKVVGNVPEIHIEPGKRNRISILIKGGGSENCSALFPLTPGDWFEGVKKKIIDHIRSCGGKPCPPIIVGIGIASPAERAITLAKKSLFRKIGERHEKLGWLEEEILEEINFLDIGPMGLGGKTTALDVKIEVGERHPASFIVGIAIQCWAHRRAFIEEKEDGEVVIWQ”: the “soluble on expression in E. coli” value was “not soluble”.

With “MGSDKIHHHHHHMFQTLDHFLKSWEFEADATQKLLNSLTDESLKQEITSQNWTLGRIAWHTVAAIGIITSNTDLTFQAPAEDYPVPTSAQFIADSYHQASNAFVQALKTQWTDHTLQERINFIGQQMPNGSLLMFLIQHQNHHRGQMTVLMRQAGLTVPGIYGPAKEEWAKFGLEAPKM”, the “soluble on expression in E. coli” value is reported as “not soluble”.

Turning to “MAHHHHHHMRPYKRVLIKLSGGALADQTGNSFNSKRLEHIANEILSIVDLGIEVSIVIGGGNIFRGHLAEEWGIDRVEADNIGTLGTIINSLMLRGVLTSKTNKEVRVMTSIPFNAVAEPYIRLRAVHHLDNGYIVIFGGGNGQPFVTTDYPSVQRAIEMNSDAILVAKQGVDGVFTSDPKHNKSAKMYRKLNYNDVVRQNIQVMDQAALLLARDYNLPAHVFNFDEPGVMRRICLGEHVGTLINDDASLLVHEK”, the “soluble on expression in E. coli” value is “soluble”.

As for “MSLGAQADTILNVATAGDQNMVDYVKTWLGPKFEAAHPGVKVRVIGTGPGDAGSNKISEKLTAQQESGAQQWDIDVAVVHQKAGGEQVAKGLLQKYRQDIQTGGMVSSPSATQALGVNVDGYVMPMFLSQTAIAWNSDLVTTPPASYDELVAWTQKHPQAFGYNGIKNGMSGVSFVVGWIYAYGTDAQRLSAGPYDKSVEKGWQQAYEKLKAFNKNVTFTPGNAGTLDMLSRGEIAMGPVWVDMFYSWKDQGKLPPSIKLALLAPGMPGQPMYYVIPAKAANPQLARDFIALATSPEVQAQGIVKQFNWYPGIDAGQVKPKLDAATWQKLFAEISPEALAKYGKSFPIAPYFDDIKEGYESQVANEGHHHHHH”, the “soluble on expression in E. coli” value was “soluble”. Consider “MTTMNPFLVQSTLPYLAPHFDQIANHHYRPAFDEGMQQKRAEIAAIALNPQTPDFNNTILALEQSGELITRVTSVFFAMTAAHTNDELQRLDEQFSAELAELANDIYLNGELFARVDAVWQRRESLGLDSESIRLVEVIHQRFVLAGAKLAQADKAKLKVLNTEAATLTSQFNQRLLAANKSGGLVVNDIAQLAGMSEQEIALAAEAAREKGLDNKWLIPLLNTTQQPALAEMRDRATREKLFIAGWTRAEKNDANDTRAIIQRLVEIRAQQAKLLGFPHYAAWKIADQMAKTPEAALNFMREIVPAARQRASDELASIQAVIDKQQGGFSAQPWDWAFYAEQVRREKFDLDEAQLRPYFELNTVLNEGVFWTANQLFGIKFVERFDIPVYHPDVRVWEIFDHNGVGLALFYGDFFARDSKSGGAWMGNFVEQSTLNETHPVIYNVCNYQKPAAGEPALLLWDDVITLFHEFGHTLHGLFARQRYATLSGTNTPRDFVEFPSQINEHWATHPQVFARYARHYQSGAAMPDELQQKMRNASLFNKGYEMSELLSAALLDMRWHCLEENEAMQDVDDFELRALVAENMDLPAIPPRYRSSYFAHIFGGGYAAGYYAYLWTQMLADDGYQWFVEQGGLTRENGQRFREAILSRGNSEDLERLHRQWRGKAPQIMPMLQHRGLNI”, for which the “soluble on expression in E. coli” value is recorded as “not soluble”.

Take “GGSSRHQFDLIMCLKQPGVQTGLLCEKCDGKCPICDSYVRPKRKVRVCENCSFGKQAKNCIICNLNVGVNDAFYCWECCRLGKDKDGCPRILNLGSNRLDRHFEKKKKV”: the “soluble on expression in E. coli” value is recorded as “soluble”. As for “MGTQQKDVTIKSDAPDTLLLEKHADYIASYGSKKDDYEYCMSEYLRMSGVYWGLTVMDLMGQLHRMNKEEILVFIKSCQHECGGVSASIGHDPHLLYTLSAVQILTLYDSIHVINVDKVVAYVQSLQKEDGSFAGDIWGEIDTRFSFCAVATLALLGKLDAINVEKAIEFVLSCMNFDGGFGCRPGSESHAGQIYCCTGFLAITSQLHQVNSDLLGWWLCERQLPSGGLNGRPEKLPDVCYSWWVLASLKIIGRLHWIDREKLRSFILACQDEETGGFADRPGDMVDPFHTLFGIAGLSLLGEEQIKPVSPVFCMPEEVLQRVNVQPELVS”, the “soluble on expression in E. coli” value is recorded as “soluble”. As to “MNIVIAAVGGQGAVLTSKILGTLAQNLGKDVKVSEVHGMSQRGGSVVAYVKFGDKVYSPVVEKGTADIVLAFEMLEGARYVDYLKENGKLVVNTQRIDPMPVITGDMEYPADLGEKLEELNIGYIPVDALSLAKNAGTIKAVNVALIGVLAQNSNIKKEEWIKAIKDTVPEKFLELNLKAFELGYNLE”, the “soluble on expression in E. coli” value is “soluble”.
